Consider two molecules from article PMC5379037.

This series addresses GST-CaWRKYa (Capsicum annuum, UniProt Q1XD53 1-546). Kind of series: EMSA; 5 ug protein; EMSA: 4 C, 30 min, 5% native polyacrylamide gel in 0.5x TBE; 5 ug protein (0.5 ug in Fig. S5b); binding buffer, salt and pH not stated. (A gel shift assay detects complexes by their altered migration in electrophoresis.)

GST-CaWRKYa, sequence (Q1XD53 entry or part of it): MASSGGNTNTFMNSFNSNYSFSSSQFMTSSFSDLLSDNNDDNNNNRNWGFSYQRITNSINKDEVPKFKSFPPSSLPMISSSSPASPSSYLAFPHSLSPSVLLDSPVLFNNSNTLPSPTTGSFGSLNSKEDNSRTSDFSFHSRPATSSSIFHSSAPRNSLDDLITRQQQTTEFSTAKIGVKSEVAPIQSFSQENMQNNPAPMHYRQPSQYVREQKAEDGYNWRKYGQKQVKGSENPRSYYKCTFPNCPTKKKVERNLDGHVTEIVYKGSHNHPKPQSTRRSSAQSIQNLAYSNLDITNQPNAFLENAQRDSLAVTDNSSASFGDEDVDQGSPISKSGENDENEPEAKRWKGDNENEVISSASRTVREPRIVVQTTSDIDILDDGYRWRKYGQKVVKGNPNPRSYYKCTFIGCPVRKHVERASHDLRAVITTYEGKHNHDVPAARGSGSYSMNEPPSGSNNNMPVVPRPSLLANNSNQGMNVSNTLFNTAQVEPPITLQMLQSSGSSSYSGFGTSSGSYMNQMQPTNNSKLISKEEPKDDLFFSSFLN

B1: W-box probe (dsDNA)
DNA 1: CGTTGACCGTTGACCGAGTTGACTTTTTA
DNA 2: TAAAAAGTCAACTCGGTCAACGGTCAACG
Take B1: the binding result is “binds”.

B2: mW-box probe (dsDNA)
DNA 1: CGTAGACGGTAGACGGAGTAGACGTTTTA
DNA 2: TAAAACGTCTACTCCGTCTACCGTCTACG
For B2, the binding result is listed as “no binding”.
